Source: article PMC5976803

T1: anti-CLDN-5 ECR mAb clone 1B3
T1 chain 1: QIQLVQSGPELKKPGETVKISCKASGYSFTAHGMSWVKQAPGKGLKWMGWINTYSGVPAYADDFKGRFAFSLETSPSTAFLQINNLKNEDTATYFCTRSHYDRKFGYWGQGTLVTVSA
T1 chain 2: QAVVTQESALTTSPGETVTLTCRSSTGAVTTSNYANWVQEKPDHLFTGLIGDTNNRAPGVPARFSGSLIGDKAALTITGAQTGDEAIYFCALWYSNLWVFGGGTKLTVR


How the values were obtained:
Assay in all cases: proteoliposome ELISA
Conditions in all cases: chain shown with the change;; parent: est. 1.0; read off a plot
[1] = target: T1, anti-CLDN-5 ECR mAb clone 1B3
[2] = target: anti-CLDN-5 ECR mAb clone 1D1
anti-CLDN-5 ECR mAb clone 1D1, sequence (chain, as listed by the source, chain 1 of 2): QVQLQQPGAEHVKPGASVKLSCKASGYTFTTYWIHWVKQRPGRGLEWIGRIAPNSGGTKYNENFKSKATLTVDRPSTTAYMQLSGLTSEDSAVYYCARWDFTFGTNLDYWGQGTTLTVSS
anti-CLDN-5 ECR mAb clone 1D1, sequence (chain, as listed by the source, chain 2 of 2): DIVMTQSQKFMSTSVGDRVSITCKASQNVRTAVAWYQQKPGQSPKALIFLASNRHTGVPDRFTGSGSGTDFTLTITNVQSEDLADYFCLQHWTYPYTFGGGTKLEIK

[3] = target: anti-CLDN-5 ECR mAb clone 2B1
anti-CLDN-5 ECR mAb clone 2B1, sequence (chain, as listed by the source, chain 1 of 2): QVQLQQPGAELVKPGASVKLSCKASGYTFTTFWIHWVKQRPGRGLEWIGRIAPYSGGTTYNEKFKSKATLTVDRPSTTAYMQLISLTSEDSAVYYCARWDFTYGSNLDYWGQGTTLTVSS
anti-CLDN-5 ECR mAb clone 2B1, sequence (chain, as listed by the source, chain 2 of 2): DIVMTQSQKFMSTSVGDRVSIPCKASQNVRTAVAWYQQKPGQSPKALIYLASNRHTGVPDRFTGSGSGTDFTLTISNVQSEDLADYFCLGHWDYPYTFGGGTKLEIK

[4] = target: anti-CLDN-5 ECR mAb clone 2B12
anti-CLDN-5 ECR mAb clone 2B12, sequence (chain, as listed by the source, chain 1 of 2): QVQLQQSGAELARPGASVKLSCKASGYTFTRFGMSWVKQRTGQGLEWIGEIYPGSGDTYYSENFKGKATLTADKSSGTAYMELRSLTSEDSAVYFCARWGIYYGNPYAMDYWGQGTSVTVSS
anti-CLDN-5 ECR mAb clone 2B12, sequence (chain, as listed by the source, chain 2 of 2): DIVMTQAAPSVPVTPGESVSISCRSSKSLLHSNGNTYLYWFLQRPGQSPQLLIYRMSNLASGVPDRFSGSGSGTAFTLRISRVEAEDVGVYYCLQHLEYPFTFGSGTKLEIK

Binder | ratio to parent [1] | ratio to parent [2] | ratio to parent [3] | ratio to parent [4]
AGIA-tagged human CLDN-5, cell-free synthesized proteoliposome, O00501 Q156A (protein) MGSAALEILGLVLCLVGWGGLILACGLPMWQVTAFLDHNIVTAQTTWKGLWMSCVVQSTGHMQCKVYDSVLALSTEVQAARALTVSAVLLAFVALFVTLAGAQCTTCVAPGPAKARVALTGGVLYLFCGLLALVPLCWFANIVVREFYDPSVPVSAKYELGAALYIGWAATALLMVGGCLLCCGAWVCTGRPDLSFPVKYSAPRRPTATGDYDKKNYV | 1.2 | 0.88 | 0.55 | 0.94
AGIA-tagged human CLDN-5, cell-free synthesized proteoliposome, O00501 Y148A (protein) MGSAALEILGLVLCLVGWGGLILACGLPMWQVTAFLDHNIVTAQTTWKGLWMSCVVQSTGHMQCKVYDSVLALSTEVQAARALTVSAVLLAFVALFVTLAGAQCTTCVAPGPAKARVALTGGVLYLFCGLLALVPLCWFANIVVREFADPSVPVSQKYELGAALYIGWAATALLMVGGCLLCCGAWVCTGRPDLSFPVKYSAPRRPTATGDYDKKNYV | 0.17 | 1.3 | 1.1 | 0.75
AGIA-tagged human CLDN-5, cell-free synthesized proteoliposome, O00501 P150A (protein) MGSAALEILGLVLCLVGWGGLILACGLPMWQVTAFLDHNIVTAQTTWKGLWMSCVVQSTGHMQCKVYDSVLALSTEVQAARALTVSAVLLAFVALFVTLAGAQCTTCVAPGPAKARVALTGGVLYLFCGLLALVPLCWFANIVVREFYDASVPVSQKYELGAALYIGWAATALLMVGGCLLCCGAWVCTGRPDLSFPVKYSAPRRPTATGDYDKKNYV | 1.8 | 0.26 | 0.27 | 0.13
AGIA-tagged human CLDN-5, cell-free synthesized proteoliposome, O00501 V154A (protein) MGSAALEILGLVLCLVGWGGLILACGLPMWQVTAFLDHNIVTAQTTWKGLWMSCVVQSTGHMQCKVYDSVLALSTEVQAARALTVSAVLLAFVALFVTLAGAQCTTCVAPGPAKARVALTGGVLYLFCGLLALVPLCWFANIVVREFYDPSVPASQKYELGAALYIGWAATALLMVGGCLLCCGAWVCTGRPDLSFPVKYSAPRRPTATGDYDKKNYV | 1.2 | 1.3 | 1.1 | 0.87
AGIA-tagged human CLDN-5, cell-free synthesized proteoliposome, O00501 F147A (protein) MGSAALEILGLVLCLVGWGGLILACGLPMWQVTAFLDHNIVTAQTTWKGLWMSCVVQSTGHMQCKVYDSVLALSTEVQAARALTVSAVLLAFVALFVTLAGAQCTTCVAPGPAKARVALTGGVLYLFCGLLALVPLCWFANIVVREAYDPSVPVSQKYELGAALYIGWAATALLMVGGCLLCCGAWVCTGRPDLSFPVKYSAPRRPTATGDYDKKNYV | 2.4 | 1.5 | 1.1 | 1.3
AGIA-tagged human CLDN-5, cell-free synthesized proteoliposome, O00501 S151A (protein) MGSAALEILGLVLCLVGWGGLILACGLPMWQVTAFLDHNIVTAQTTWKGLWMSCVVQSTGHMQCKVYDSVLALSTEVQAARALTVSAVLLAFVALFVTLAGAQCTTCVAPGPAKARVALTGGVLYLFCGLLALVPLCWFANIVVREFYDPAVPVSQKYELGAALYIGWAATALLMVGGCLLCCGAWVCTGRPDLSFPVKYSAPRRPTATGDYDKKNYV | 0.75 | 0.1 | 0.14 | 0.03
AGIA-tagged human CLDN-5, cell-free synthesized proteoliposome, O00501 P153A (protein) MGSAALEILGLVLCLVGWGGLILACGLPMWQVTAFLDHNIVTAQTTWKGLWMSCVVQSTGHMQCKVYDSVLALSTEVQAARALTVSAVLLAFVALFVTLAGAQCTTCVAPGPAKARVALTGGVLYLFCGLLALVPLCWFANIVVREFYDPSVAVSQKYELGAALYIGWAATALLMVGGCLLCCGAWVCTGRPDLSFPVKYSAPRRPTATGDYDKKNYV | 0.19 | 0.13 | 0.14 | 0.08
AGIA-tagged human CLDN-5, cell-free synthesized proteoliposome, O00501 V152A (protein) MGSAALEILGLVLCLVGWGGLILACGLPMWQVTAFLDHNIVTAQTTWKGLWMSCVVQSTGHMQCKVYDSVLALSTEVQAARALTVSAVLLAFVALFVTLAGAQCTTCVAPGPAKARVALTGGVLYLFCGLLALVPLCWFANIVVREFYDPSAPVSQKYELGAALYIGWAATALLMVGGCLLCCGAWVCTGRPDLSFPVKYSAPRRPTATGDYDKKNYV | 0.25 | 1.6 | 1.2 | 0.39
AGIA-tagged human CLDN-5, cell-free synthesized proteoliposome, O00501 D149A (protein) MGSAALEILGLVLCLVGWGGLILACGLPMWQVTAFLDHNIVTAQTTWKGLWMSCVVQSTGHMQCKVYDSVLALSTEVQAARALTVSAVLLAFVALFVTLAGAQCTTCVAPGPAKARVALTGGVLYLFCGLLALVPLCWFANIVVREFYAPSVPVSQKYELGAALYIGWAATALLMVGGCLLCCGAWVCTGRPDLSFPVKYSAPRRPTATGDYDKKNYV | 0.17 | 0.06 | 0.11 | 0.03
AGIA-tagged human CLDN-5, cell-free synthesized proteoliposome, O00501 E146A (protein) MGSAALEILGLVLCLVGWGGLILACGLPMWQVTAFLDHNIVTAQTTWKGLWMSCVVQSTGHMQCKVYDSVLALSTEVQAARALTVSAVLLAFVALFVTLAGAQCTTCVAPGPAKARVALTGGVLYLFCGLLALVPLCWFANIVVRAFYDPSVPVSQKYELGAALYIGWAATALLMVGGCLLCCGAWVCTGRPDLSFPVKYSAPRRPTATGDYDKKNYV | 0.49 | 0.26 | 0.25 | 0.36
AGIA-tagged human CLDN-5, cell-free synthesized proteoliposome, O00501 S155A (protein) MGSAALEILGLVLCLVGWGGLILACGLPMWQVTAFLDHNIVTAQTTWKGLWMSCVVQSTGHMQCKVYDSVLALSTEVQAARALTVSAVLLAFVALFVTLAGAQCTTCVAPGPAKARVALTGGVLYLFCGLLALVPLCWFANIVVREFYDPSVPVAQKYELGAALYIGWAATALLMVGGCLLCCGAWVCTGRPDLSFPVKYSAPRRPTATGDYDKKNYV | 1.3 | 0.86 | 0.84 | 0.99
